Test results taken from US20090010941A1, “Methods for treating HIV” (priority 2007, published 2009).
“Also recorded” adds a separate entry of the source. Where a name gives a salt, the structure may show the parent alone.

Key:
[1] = test system: HIV-1 infected macrophages; experiment: Cell Death ELISA for histone-associated DNA fragmentation after Imatinib alone; format: cell-based, human; settings: Imatinib alone 24 or 120 hours, no exogenous TRAIL, five days after infection
Description: ELISA for Caspase-3 cleavage (to active form) was obtained from Cell Signaling Technologies (Beverley Mass.). Briefly, 1.4×10^6 macrophages infected with WT and envelope-minus viruses were lysed according to the supplier's protocol, 1 hour after the addition of soluble recombinant Trail (100 ng ml-1). Protein content was determined by Bradford Assay (Bio-Rad, Hercules Calif.) and 220 μg of protein in 200 μl from each culture was assayed. ELISA for supernatant release of histone associated DNA fragments released after induced cell death (Roche, Nutley N.J.) was used to measure macrophage longevity. […] In some experiments an MTT assay (Sigma, St. Louis Mo.) was used to measure cell viability. Fluorescent detection of active caspases was performed by pre-treating cells with red-VAD-FMK and flow cytometry according to the manufacturer's protocol (EMD biosciences). For the measurement of apoptosis by Annexin V and propidium iodide staining in flow cytometry reagents were obtained from BioVision (Mountain View Calif.) and used according to the supplier's protocol.

[2] = test system: TRAIL-R1 expression on HIV-1 infected macrophages; format: cell-based, human
[3] = test system: Bcl-2, Mcl-1, BclXL, BimL, Bmf and cFLIP; experiment: Western blotting of pro- and anti-apoptotic proteins in the TRAIL signaling pathway; format: cell-based, human; settings: HIV-1 LAI WT infected macrophages, 2 μM Imatinib 16 hours
Description: FIG. 11 provides a set of six protein immunoblot images. […] Protein levels of Bcl-2, Mcl-1, BClxL, BimL, Bmf and cFLIP were determined by Western blotting.
It has been shown that envelope induces over-expression of anti-apoptotic genes, Mcl-1, Bfl-1, cIAP-1, cIAP-2 and XIAP, that function in preventing mitochondrial and caspase-mediated apoptosis by TRAIL (Salvesen and Duckett, 2002; Zhang & Fang, 2005; Han et al., 2006).

[4] = in vivo; cited from earlier work
[5] = test system: HIV-1 infected macrophages; experiment: Macrophage half-life in the presence of TRAIL (cell death ELISA); format: cell-based, human; settings: soluble TRAIL 100 ng·ml-1
Description: (§1) Macrophages were infected with pseudotyped wild-type or envelope-minus HIV-1 LAI variants and monitored for virus production (FIG. 4A). At 8 days post infection, cultures were incubated with soluble TRAIL (100 ng·ml-1) and apoptosis determined by ELISA for active (cleaved) Caspase 3. […] Macrophage cultures, equally infected with pseudotyped HIV-1 LAI WT or Δenv viruses or mock infected, were examined by phase contrast microscopy after incubation with 100 ng/ml TRAIL (1 hour treatment with TRAIL followed by 5 hours incubation after removal of TRAIL). […] Eight days after infection with pseudotyped HIV-1 LAI WT or Δenv viruses, macrophages were incubated with soluble TRAIL (100 ng·ml-1) and percentage of viable cells remaining extrapolated from the level of cell death determined from ELISA. Macrophage half-life was calculated from the linear regression slope and expressed in hours+/−SD.
Macrophages are a long-lived reservoir of HIV in vivo and a source of viral rebound (reviewed in Stevenson, 2003). The evasion of apoptosis in other human viral infections contributes to viral persistence and enables the infected cell to survive in the face of a hostile microenvironment (Raftery et al., 2001; Secchiero et al., 2001; Tollefson et al. 1998; Tollefson et al. 2001). Therefore we determined the half-life of HIV-1 infected macrophages in the presence of a concentration of TRAIL capable of inducing apoptosis. […] Thus resistance to TRAIL can potentially provide a significant advantage to macrophages infected by HIV-1.
ELISA for Caspase-3 cleavage (to active form) was obtained from Cell Signaling Technologies (Beverley Mass.). Briefly, 1.4×10^6 macrophages infected with WT and envelope-minus viruses were lysed according to the supplier's protocol, 1 hour after the addition of soluble recombinant Trail (100 ng ml-1). Protein content was determined by Bradford Assay (Bio-Rad, Hercules Calif.) and 220 μg of protein in 200 μl from each culture was assayed. […]

[6] = test system: HIV-1 LAI infected macrophages; experiment: Macrophage viability with increasing concentrations of TRAIL (MTT assay); format: cell-based, human; settings: 16 hours
Description: FIG. 5. provides three graphs showing that cell viability and virus production in the presence of TRAIL requires an intact envelope gene and is augmented by M-CSF. Macrophage viability and virus production in the presence of increasing concentrations of TRAIL is shown in FIG. 5A and FIG. 5B, respectively. Four days after infection with pseudotyped HIV-1 LAI WT or Δenv viruses, macrophages were incubated with increasing concentrations of soluble TRAIL and cell viability (FIG. 5A) and virus production (FIG. 5B) determined after 16 hours by MTT assay and reverse transcriptase production, respectively. Activated CD8+ T cells suppress viral replication in macrophages via TRAIL (FIG. 5C). Macrophages were infected with pseudotyped wild-type or envelope-minus HIV-1 LAI variants and monitored for virus production in a 24 hour period after incubation with Anti-CD3/CD28 stimulated autologous CD8+ TRAIL+T lymphocytes for 4 hours. Macrophages were pre-treated for 16 hours with M-CSF neutralizing antibody or isotype control and T cells were preincubated with recombinant TRAIL-R1 or control receptor (5 μg·ml-1) for 1 hour. […]
ELISA for Caspase-3 cleavage (to active form) was obtained from Cell Signaling Technologies (Beverley Mass.). […] Protein content was determined by Bradford Assay (Bio-Rad, Hercules Calif.) and 220 μg of protein in 200 μl from each culture was assayed. […]

HIV-1 LAI = experiment: Virus production with increasing concentrations of TRAIL (reverse transcriptase); format: cell-based, human; settings: 16 hours
Description: FIG. 5. provides three graphs showing that cell viability and virus production in the presence of TRAIL requires an intact envelope gene and is augmented by M-CSF. Macrophage viability and virus production in the presence of increasing concentrations of TRAIL is shown in FIG. 5A and FIG. 5B, respectively. Four days after infection with pseudotyped HIV-1 LAI WT or Δenv viruses, macrophages were incubated with increasing concentrations of soluble TRAIL and cell viability (FIG. 5A) and virus production (FIG. 5B) determined after 16 hours by MTT assay and reverse transcriptase production, respectively. Activated CD8+ T cells suppress viral replication in macrophages via TRAIL (FIG. 5C). Macrophages were infected with pseudotyped wild-type or envelope-minus HIV-1 LAI variants and monitored for virus production in a 24 hour period after incubation with Anti-CD3/CD28 stimulated autologous CD8+ TRAIL+T lymphocytes for 4 hours. Macrophages were pre-treated for 16 hours with M-CSF neutralizing antibody or isotype control and T cells were preincubated with recombinant TRAIL-R1 or control receptor (5 μg·ml-1) for 1 hour.
The differential sensitivity of wild type and envelope minus HIV-1 infected macrophages to TRAIL-mediated cell killing correlated with the concentration of TRAIL required to impact cell viability and virus production. […]

[7] = test system: HIV-1 infected macrophages; experiment: TRAIL-mediated apoptosis by ELISA for active (cleaved) Caspase 3; format: cell-based, human; settings: HIV-1 WT infected macrophages, Day 2
Description: as §1
Relationship of apoptosis by TRAIL, M-CSF release and TRAIL-R1 expression in macrophages infected with pseudotyped wild type or envelope minus HIV-1 HSA viruses. In FIG. 6A, M-CSF release as a function of time was determined by ELISA. In FIG. 6B, TRAIL-R1 expression as a function of time was measured by flow cytometry. In FIG. 6C, TRAIL-mediated apoptosis in macrophages was analyzed by ELISA for active (cleaved) Caspase 3 in parallel cultures during the infection (Error bars, SD). […]

[8] = test system: HIV-1 infected macrophages; experiment: Apoptosis by Annexin V and propidium iodide staining and flow cytometry; format: cell-based, human; settings: TRAIL exposure without Imatinib treatment
[9] = macrophages infected with pseudotyped HIV-1 LAI Δenv
[10] = macrophages infected with pseudotyped wild type HIV-1 LAI

For `Cc1ccc(NC(=O)c2ccc(CN3CCN(C)CC3)cc2)cc1Nc1nccc(-c2cccnc2)n1` [Imatinib, Imatinib mesylate], the “apoptosis (histone-associated DNA fragmentation) of wild-type-infected macrophages” value [1] was “results in apoptosis of wild-type-infected macrophages; also recorded: removed the requirement for exogenous TRAIL”, the “TRAIL-R1 expression on uninfected macrophages” value ([2]; uninfected macrophages, also those in cultures of infected cells, Imatinib 16 hours) was “did not promote TRAIL-R1 expression” and the “expression of pro- and anti-apoptotic proteins” value [3] was “cause a shift in the expression of the proteins in favor of cellular apoptosis”. For the same molecule, the “bioavailability to the brain” value [4] was “poor bioavailability to the brain”.

B1: exogenous M-CSF: recombinant macrophage colony stimulating factor added to macrophage cultures (protein, UniProt P09603 33-554, looked up)
Macrophage colony-stimulating …: EEVSEYCSHMIGSGHLQSLQRLIDSQMETSCQITFEFVDQEQLKDPVCYLKKAFLLVQDIMEDTMRFRDNTPNAIAIVQLQELSLRLKSCFTKDYEEHDKACVRTFYETPLQLLEKVKNVFNETKNLLDKDWNIFSKNCNNSFAECSSQDVVTKPDCNCLYPKAIPSSDPASVSPHQPLAPSMAPVAGLTWEDSEGTEGSSLLPGEQPLHTVDPGSAKQRPPRSTCQSFEPPETPVVKDSTIGGSPQPRPSVGAFNPGMEDILDSAMGTNWVPEEASGEASEIPVPQGTELSPSRPGGGSMQTEPARPSNFLSASSPLPASAKGQQPADVTGTALPRVGPVRPTGQDWNHTPQKTDHPSALLRDPPEPGSPRISSLRPQGLSNPSTLSAQPQLSRSHSSGSVLPLGELEGRRSTRDRRSPAEPEGGPASEGAARPLPRFNSVPLTDTGHERQSEGSFSPQLQESVFHLLVPSVILVLLAVGGLLFYRWRRRSHQEPQRADSPLEQPEGSPLTQDDRQVELPV
For B1, the TRAIL-R1 expression ([2]; macrophages infected with an envelope defective virus, exogenous M-CSF 16 hours) was “down-regulated TRAIL-R1”.

B2: TRAIL: soluble human recombinant TRAIL (TNF-related apoptosis-inducing ligand) obtained from Axxora LLC (protein, UniProt P50591 39-281, looked up)
extracellular domain: TNELKQMQDKYSKSGIACFLKEDDSYWDPNDEESMNSPCWQVKWQLRQLVRKMILRTSEETISTVQEKQQNISPLVRERGPQRVAAHITGTRGRSNTLSSPNSKNEKALGRKINSWESSRSGHSFLSNLHLRNGELVIHEKGFYYIYSQTYFRFQEEIKENTKNDKQMVQYIYKYTSYPDPILLMKSARNSCWSKDAEYGLYSIYQGGIFELKENDRIFVSVTNEHLIDMDHEASFFGAFLVG
modifications: extracellular domain
notes: soluble human recombinant TRAIL (TNF-related apoptosis-inducing ligand) obtained from Axxora LLC
For B2, the “macrophage half-life in the presence of TRAIL” value (from here on “macrophage half-life”) ([5]; HIV-1 Δenv infected macrophages) was “around 36 hours”, the “macrophage half-life” value ([5]; mock infected cultures) was 81 h and the “macrophage half-life” value ([5]; wild type infected cultures) was 110 h. The “TRAIL concentration effecting ~50% reduction in cell viability” value [6, 9] was 3 ng/mL, the “TRAIL concentration required for ~50% reduction in viability” value [6, 10] was greater than 30 ng/mL and the “TRAIL concentration effecting ~50% reduction in virus output” value (HIV-1 LAI; [9]) was 3 ng/mL. For the same molecule, the “TRAIL concentration required for ~50% reduction in virus output” value (HIV-1 LAI; [10]) was greater than 50 ng/mL, the “TRAIL-induced active caspase 3 elevation” value [7] was 3 fold and the “apoptosis of infected macrophages” value [8] was 3.9%.
